Measured values taken from doi:10.1101/2021.12.16.472929 (bioRxiv, 2021).
Where two headings read alike, the source gives them in different places.

Columns and labels:
SEC = target: the molecule itself; experiment: SEC
SEC-SAXS [1] = target: the molecule itself; experiment: SEC-SAXS
SEC-SAXS [2] = target: the molecule itself; experiment: SEC-SAXS; remark: listed apart in the source

B1: FLhArc, full-length human Arc (capsid / high-molecular-weight forms) (natural protein)
chain: MELDHRTSGGLHAYPGPRGGQVAKPNVILQIGKCRAEMLEHVRRTHRHLLAEVSKQVERELKGLHRSVGKLESNLDGYVPTSDSQRWKKSIKACLCRCQETIANLERWVKREMHVWREVFYRLERWADRLESTGGKYPVGSESARHTVSVGVGGPESYCHEADGYDYTVSPYAITPPPAAGELPGQEPAEAQQYQPWVPGEDGQPSPGVDTQIFEDPREFLSHLEEYLRQVGGSEEYWLSQIQNHMNGPAKKWWEFKQGSVKNWVEFKKEFLQYSEGTLSREAIQRELDLPQKQGEPLDQFLWRKRDLYQTLYVDADEEEIIQYVVGTLQPKLKRFLRHPLPKTLEQLIQRGMEVQDDLEQAAEPAGPHLPVEDEAETLTPAPNSESVASDRTQPE
binding result (SEC): binds

B2: MBP-2rNT, N-terminal domain of rat Arc (residues 24-137) with the poly-Ala mutation, His6-MBP fusion (domain or fragment)
chain: KPNVILQIGKCRAEMLEHVRRTHRHLLTEVSKQVERELKGLHRSVGKLENNLDGYVPTGDSQRWKKSIKACLCRCQETIANLERWVKREAAAAAAAFYRLERWADRLESMGGKY
stoichiometry N (SEC-SAXS [1]): 2

B3: FLrArc-7A, full-length rat Arc with a poly-Ala mutation of residues 113-119 (natural protein)
chain: MELDHMTTGGLHAYPAPRGGPAAKPNVILQIGKCRAEMLEHVRRTHRHLLTEVSKQVERELKGLHRSVGKLENNLDGYVPTGDSQRWKKSIKACLCRCQETIANLERWVKREAAAAAAAFYRLERWADRLESMGGKYPVGSEPARHTVSVGVGGPEPYCQEADGYDYTVSPYAITPPPAAGELPEQESVGAQQYQSWVPGEDGQPSPGVDTQIFEDPREFLSHLEEYLRQVGGSEEYWLSQIQNHMNGPAKKWWEFKQGSVKNWVEFKKEFLQYSEGTLSREAIQRELDLPQKQGEPLDQFLWRKRDLYQTLYVDAEEEEIIQYVVGTLQPKFKRFLRHPLPKTLEQLIQRGMEVQDGLEQAAEPSVTPLPTEDETEALTPALTSESVASDRTQPE
stoichiometry N (SEC-SAXS [2]): 2
